Residue numbers refer to the chain shown, from its start.
B1: CR6261 germline variant sCDR H2/sCDR H3, soluble IgG (antibody, V domains shown)
VH: QVQLVQSGAEVKKPGSSVKVSCKASGGTFSSYAISWVRQAPGQGLEWMGGIIPIFGTTKYAPKFQGRVTITADESTSTAYMELSSLRSEDTAVYYCAKHMGYQVRETMDVWGKGTTVTVSS
VL: QSVLTQPPSVSAAPGQKVTISCSGSSSNIGNNYVSWYQQLPGTAPKLLIYDNNKRPSGIPDRFSGSKSGTSATLGITGLQTGDEADYYCGTWDSSLSAYVVFGGGTKLTVL
B2: CR6261 germline variant sCDR H1, soluble IgG (antibody, V domains shown)
VH: B1 VH with T28P, S30R, T58A, K59N, P62Q, V104L
VL: B1 VL
B3: CR6261 germline variant sCDR H1/sCDR H2/sFR3, soluble IgG (antibody, V domains shown)
VH: B1 VH with T28P, S30R, E74D, S75F, T76A, S77G, A79V, V104L
VL: B1 VL
B4: CR6261 germline variant sCDR H2, soluble IgG (antibody, V domains shown)
VH: B1 VH with V104L
VL: B1 VL
B5: CR6261 germline variant sCDR H3, soluble IgG (antibody, V domains shown)
VH: B1 VH with T58A, K59N, P62Q
VL: B1 VL
B6: CR6261 germline variant sCDR H1/sFR3, soluble IgG (antibody, V domains shown)
VH: QVQLVQSGAEVKKPGSSVKVSCKASGGPFRSYAISWVRQAPGQGLEWMGGIIPIFGTANYAQKFQGRVTITADDFAGTVYMELSSLRSEDTAVYYCAKHMGYQLRETMDVWGKGTTVTVSS
VL: B1 VL
B7: CR6261 germline variant sFR3/sCDR H3, soluble IgG (antibody, V domains shown)
VH: B6 VH with P28T, R30S, L104V
VL: B1 VL
B8: CR6261 germline variant sCDR H1/sCDR H2, soluble IgG (antibody, V domains shown)
VH: B1 VH with T28P, S30R, V104L
VL: B1 VL

These binders were tested against H1 A/New Caledonia/20/1999 haemagglutinin, wild-type trimeric protein (Influenza A virus A/New …, UniProt Q6WG00, strain) (assay: ELISA).

| Binder | ELISA endpoint dilution titre | binding result |
| --- | --- | --- |
| B1 | 0.15 µg/mL |  |
| B2 | 0.15 µg/mL |  |
| B3 | 0.00133 µg/mL |  |
| B4 | > 100 µg/mL | no binding (tested: >100 µg ml^-1) |
| B5 | > 100 µg/mL | no binding (tested: >100 µg ml^-1) |
| B6 | 0.00133 µg/mL |  |
| B7 | > 100 µg/mL | no binding (tested: >100 µg ml^-1) |
| B8 | 0.15 µg/mL |  |

From PMC7095019 (Nature, 2012)
